Test results taken from paper PMC11601812, “Structural proteomics defines a sequential priming mechanism for the progesterone receptor” (Research Square, 2024).

B1: progesterone receptor isoform B (PR-B), full-length, Strep II tagged (receptor, human, UniProt P06401 1-933, looked up)
chain: MTELKAKGPRAPHVAGGPPSPEVGSPLLCRPAAGPFPGSQTSDTLPEVSAIPISLDGLLFPRPCQGQDPSDEKTQDQQSLSDVEGAYSRAEATRGAGGSSSSPPEKDSGLLDSVLDTLLAPSGPGQSQPSPPACEVTSSWCLFGPELPEDPPAAPATQRVLSPLMSRSGCKVGDSSGTAAAHKVLPRGLSPARQLLLPASESPHWSGAPVKPSPQAAAVEVEEEDGSESEESAGPLLKGKPRALGGAAAGGGAAAVPPGAAAGGVALVPKEDSRFSAPRVALVEQDAPMAPGRSPLATTVMDFIHVPILPLNHALLAARTRQLLEDESYDGGAGAASAFAPPRSSPCASSTPVAVGDFPDCAYPPDAEPKDDAYPLYSDFQPPALKIKEEEEGAEASARSPRSYLVAGANPAAFPDFPLGPPPPLPPRATPSRPGEAAVTAAPASASVSSASSSGSTLECILYKAEGAPPQQGPFAPPPCKAPGASGCLLPRDGLPSTSASAAAAGAAPALYPALGLNGLPQLGYQAAVLKEGLPQVYPPYLNYLRPDSEASQSPQYSFESLPQKICLICGDEASGCHYGVLTCGSCKVFFKRAMEGQHNYLCAGRNDCIVDKIRRKNCPACRLRKCCQAGMVLGGRKFKKFNKVRVVRALDAVALPQPVGVPNESQALSQRFTFSPGQDIQLIPPLINLLMSIEPDVIYAGHDNTKPDTSSSLLTSLNQLGERQLLSVVKWSKSLPGFRNLHIDDQITLIQYSWMSLMVFGLGWRSYKHVSGQMLYFAPDLILNEQRMKESSFYSLCLTMWQIPQEFVKLQVSQEEFLCMKVLLLLNTIPLEGLRSQTQFEEMRSSYIRELIKAIGLRQKGVVSSSQRFYQLTKLLDNLHDLVKQLHLYCLNTFIQSRALSVEFPEMMSEVIAAQLPKILAGMVKPLLFHKK
notes: Progesterone receptor isoform PR-B, human; full-length open reading frame (residues up to 933 are named), codon-optimised for insect cells; no cleavage step is described and the DSF methods call the purified proteins SII-tagged; Carries R5020 or RU486 according to the assay; In the functional row PR-B was expressed from a VectorBuilder plasmid in 293T cells (hRluc:P2A:hPGR), not this Sf9 protein; …
B2: steroid receptor coactivator 3 (SRC3), full-length, Strep II tagged (natural protein)
chain: not shown
notes: full-length open reading frame, codon-optimised for insect cells; NR-boxes at 685-689, 738-742 and 1057-1061; no cleavage step is described; source: Sf9 insect cells (baculovirus), purified (StrepTrap XT, SEC); not shown: Strep II, N-terminal, kept
B3: progesterone receptor isoform A (PR-A), full-length, Strep II tagged (receptor, human, UniProt P06401-2 1-769, looked up)
chain: MSRSGCKVGDSSGTAAAHKVLPRGLSPARQLLLPASESPHWSGAPVKPSPQAAAVEVEEEDGSESEESAGPLLKGKPRALGGAAAGGGAAAVPPGAAAGGVALVPKEDSRFSAPRVALVEQDAPMAPGRSPLATTVMDFIHVPILPLNHALLAARTRQLLEDESYDGGAGAASAFAPPRSSPCASSTPVAVGDFPDCAYPPDAEPKDDAYPLYSDFQPPALKIKEEEEGAEASARSPRSYLVAGANPAAFPDFPLGPPPPLPPRATPSRPGEAAVTAAPASASVSSASSSGSTLECILYKAEGAPPQQGPFAPPPCKAPGASGCLLPRDGLPSTSASAAAAGAAPALYPALGLNGLPQLGYQAAVLKEGLPQVYPPYLNYLRPDSEASQSPQYSFESLPQKICLICGDEASGCHYGVLTCGSCKVFFKRAMEGQHNYLCAGRNDCIVDKIRRKNCPACRLRKCCQAGMVLGGRKFKKFNKVRVVRALDAVALPQPVGVPNESQALSQRFTFSPGQDIQLIPPLINLLMSIEPDVIYAGHDNTKPDTSSSLLTSLNQLGERQLLSVVKWSKSLPGFRNLHIDDQITLIQYSWMSLMVFGLGWRSYKHVSGQMLYFAPDLILNEQRMKESSFYSLCLTMWQIPQEFVKLQVSQEEFLCMKVLLLLNTIPLEGLRSQTQFEEMRSSYIRELIKAIGLRQKGVVSSSQRFYQLTKLLDNLHDLVKQLHLYCLNTFIQSRALSVEFPEMMSEVIAAQLPKILAGMVKPLLFHKK
notes: Progesterone receptor isoform PR-A, human; N-terminal truncation (missing aa 1-164) of full-length PR-B; no cleavage step is described and the DSF methods call the purified proteins SII-tagged; Carries the steroid R5020 (agonist) or RU486 (antagonist) according to the assay; Monomer without DNA, dimer on PRE DNA by SEC-MALS; The reporter-assay plasmids carry hPGR NM_000926.4 and NM_001202474.3; …

Assays:
[1] = biological target: the molecule itself; test: SEC-MALS; each protein alone, PR bound to agonist R5020, no DNA; Superose 6 Increase; 20 mM Hepes, 50 mM NaCl, 5% glycerol, 1 mM TCEP, with or without 1 M urea, pH 7.5; about 20-100 ug injected
[2] = biological target: B2; test: HDX-MS; differential, R5020-bound PR vs PR:SRC3 and SRC3 vs PR:SRC3, with and without PRE DNA (2:1:1 PR:SRC3:PRE), sequential addition; 4 C, 20 mM Hepes, 200 mM NaCl, 1 M urea, 1 mM TCEP, 5% glycerol, pD 7.9; details: both partners purified
[3] = biological target: T1, histone acetyltransferase p300, full-length, Strep II tagged (human, UniProt Q09472 1-2414); test: cross-linking; DSSO XL-MS of two proteins (R5020-bound PR with SRC3, or PR-B with p300 without SRC3), with and without PRE DNA; PR 5 uM, 3 mM DSSO, 25 C 45 min; 20 mM Hepes pH 7.5, 200 mM NaCl, 1 M urea, 1 mM TCEP, 5% glycerol; details: both partners purified
T1 construct: Histone acetyltransferase p300, human; full-length open reading frame, codon-optimised for insect cells; no cleavage step is described; source: Sf9 insect cells (baculovirus), purified (StrepTrap XT, SEC); not shown: Strep II, N-terminal, kept
T1 sequence (Q09472 whole entry): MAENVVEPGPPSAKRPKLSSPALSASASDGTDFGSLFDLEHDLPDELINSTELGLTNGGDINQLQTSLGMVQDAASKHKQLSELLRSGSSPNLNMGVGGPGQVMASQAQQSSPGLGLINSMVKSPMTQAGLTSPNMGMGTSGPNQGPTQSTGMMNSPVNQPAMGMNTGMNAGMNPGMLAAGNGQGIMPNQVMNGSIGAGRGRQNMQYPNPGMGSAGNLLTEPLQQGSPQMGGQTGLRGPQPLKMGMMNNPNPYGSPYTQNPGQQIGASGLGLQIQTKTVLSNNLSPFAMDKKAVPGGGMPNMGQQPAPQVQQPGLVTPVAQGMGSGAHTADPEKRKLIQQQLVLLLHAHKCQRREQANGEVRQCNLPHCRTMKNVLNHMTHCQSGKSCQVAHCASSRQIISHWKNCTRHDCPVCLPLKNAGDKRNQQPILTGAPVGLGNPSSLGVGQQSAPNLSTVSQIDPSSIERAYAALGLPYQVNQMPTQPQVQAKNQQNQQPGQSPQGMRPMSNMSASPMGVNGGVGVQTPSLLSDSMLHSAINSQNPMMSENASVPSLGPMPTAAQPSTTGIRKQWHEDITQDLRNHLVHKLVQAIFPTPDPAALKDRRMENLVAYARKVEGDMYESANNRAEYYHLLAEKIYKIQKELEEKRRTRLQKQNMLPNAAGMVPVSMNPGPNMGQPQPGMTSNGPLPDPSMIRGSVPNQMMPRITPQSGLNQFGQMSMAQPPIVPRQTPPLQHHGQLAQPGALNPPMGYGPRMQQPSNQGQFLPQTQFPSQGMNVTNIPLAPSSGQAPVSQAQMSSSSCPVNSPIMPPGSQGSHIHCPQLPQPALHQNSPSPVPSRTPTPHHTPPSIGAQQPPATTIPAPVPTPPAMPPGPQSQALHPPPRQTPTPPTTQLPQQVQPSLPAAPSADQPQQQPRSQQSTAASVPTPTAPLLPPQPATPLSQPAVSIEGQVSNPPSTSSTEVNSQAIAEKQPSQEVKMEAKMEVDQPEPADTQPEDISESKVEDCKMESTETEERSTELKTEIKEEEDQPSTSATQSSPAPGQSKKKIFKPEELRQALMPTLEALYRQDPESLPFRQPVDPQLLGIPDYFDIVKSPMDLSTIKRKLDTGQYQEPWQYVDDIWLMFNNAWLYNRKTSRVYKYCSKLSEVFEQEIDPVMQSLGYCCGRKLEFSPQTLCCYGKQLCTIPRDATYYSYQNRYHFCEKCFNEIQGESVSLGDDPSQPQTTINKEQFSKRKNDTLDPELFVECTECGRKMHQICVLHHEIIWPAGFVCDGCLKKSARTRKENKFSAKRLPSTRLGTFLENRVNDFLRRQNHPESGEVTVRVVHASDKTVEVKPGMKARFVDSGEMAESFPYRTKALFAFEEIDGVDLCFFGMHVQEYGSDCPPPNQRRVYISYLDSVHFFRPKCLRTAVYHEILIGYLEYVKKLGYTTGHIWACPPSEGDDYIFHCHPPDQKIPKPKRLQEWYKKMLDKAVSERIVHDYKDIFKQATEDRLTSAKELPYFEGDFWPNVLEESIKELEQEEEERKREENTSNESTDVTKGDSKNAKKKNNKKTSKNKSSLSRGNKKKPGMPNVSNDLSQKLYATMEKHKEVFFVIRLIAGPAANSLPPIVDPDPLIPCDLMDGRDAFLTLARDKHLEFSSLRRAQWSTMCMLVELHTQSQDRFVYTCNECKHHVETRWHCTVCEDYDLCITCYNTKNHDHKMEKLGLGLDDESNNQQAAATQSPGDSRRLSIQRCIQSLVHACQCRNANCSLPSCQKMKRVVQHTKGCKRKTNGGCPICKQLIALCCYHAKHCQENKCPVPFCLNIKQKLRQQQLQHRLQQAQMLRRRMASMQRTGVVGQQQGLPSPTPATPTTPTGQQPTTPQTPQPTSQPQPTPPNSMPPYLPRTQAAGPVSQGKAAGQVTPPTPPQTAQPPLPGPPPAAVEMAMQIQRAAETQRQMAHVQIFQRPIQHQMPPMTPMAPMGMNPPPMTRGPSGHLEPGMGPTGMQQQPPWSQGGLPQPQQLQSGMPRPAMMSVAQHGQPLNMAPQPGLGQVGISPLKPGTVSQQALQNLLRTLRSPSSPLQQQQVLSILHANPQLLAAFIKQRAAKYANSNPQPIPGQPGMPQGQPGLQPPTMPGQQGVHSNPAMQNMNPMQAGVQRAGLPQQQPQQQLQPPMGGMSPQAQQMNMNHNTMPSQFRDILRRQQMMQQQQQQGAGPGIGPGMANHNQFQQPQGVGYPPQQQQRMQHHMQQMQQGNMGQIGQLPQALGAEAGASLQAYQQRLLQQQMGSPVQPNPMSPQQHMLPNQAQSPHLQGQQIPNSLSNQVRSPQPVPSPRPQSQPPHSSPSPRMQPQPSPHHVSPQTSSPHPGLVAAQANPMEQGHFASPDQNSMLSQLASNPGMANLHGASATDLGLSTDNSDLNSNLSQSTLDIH

[4] = biological target: B3; test: SEC-MALS; R5020-bound PR-A, SRC3 and p300 mixed with PRE DNA; Superose 6 Increase; 20 mM Hepes, 50 mM NaCl, 5% glycerol, 1 mM TCEP, with or without 1 M urea, pH 7.5; details: both partners purified
[5] = biological target: T1, histone acetyltransferase p300, …; test: HDX-MS; differential, R5020-bound PR:SRC3 vs PR:SRC3:p300, with and without PRE DNA, sequential addition (DNA, PR, SRC3, p300); 4 C, 20 mM Hepes, 200 mM NaCl, 1 M urea, 1 mM TCEP, 5% glycerol, pD 7.9; details: both partners purified
[6] = biological target: the molecule itself; test: SEC-MALS; R5020-bound PR mixed with 32-mer PRE DNA; Superose 6 Increase; 20 mM Hepes, 50 mM NaCl, 5% glycerol, 1 mM TCEP, with or without 1 M urea, pH 7.5
[7] = biological target: T1, histone acetyltransferase p300, …; test: cross-linking; DSSO XL-MS of R5020-bound PR:SRC3:p300, with and without PRE DNA (PR:SRC3:p300:DNA 2:1:1:1.5); PR 5 uM, 3 mM DSSO, 25 C 45 min; 20 mM Hepes pH 7.5, 200 mM NaCl, 1 M urea, 1 mM TCEP, 5% glycerol; details: both partners purified

Q: What does the source list for B1?
A: stoichiometry N [1]: 2; binding result [2]: binds; binding result [3]: binds

Q: B2 was tested. Which “stoichiometry N” value [4] did it give?
A: Its value is 0.5.

Q: Does B2 bind [5]?
A: Result: binds

Q: Which “stoichiometry N” value [6] does the source give for B3 here?
A: The value was 2.

Q: Does B3 bind [2]?
A: Result: binds

Q: Does B3 bind [7]?
A: Result: binds
